The values below come from EP2467164A2 (dated 2012).

One may read the Kd as a measure of binding affinity in units of concentration. In general, koff refers to a measure of how fast the partners let go of each other. Read a low koff as slow dissociation. Usually kon stands for the rate constant with which the complex forms. Read a low kon as slow association.

The target in one experiment is T1, ErbB1 on AdrR cells (UniProt P00533 25-1210, limits assumed).
T1 construct: whole, on cells; also called EGFR; ErbBl
Nature of the experiment: flow cytometry, biotinylated BTC (Figure 15). A general note: Flow cytometry measures light scatter and fluorescence of single cells or particles in a stream.

In experiment [1] the target is T2, ErbB3 expressed on MALME-3M melanoma cells (human, UniProt P21860 20-1342).
T2 construct: Endogenous ErbB3 of the MALME-3M cell line; also called ErbB3 on MALME-3M cells
Nature of the experiment: cell binding assay on MALME-3M cells, flow cytometry, one-site model.

A further experiment concerns the target T3, recombinant ErbB3 (human, UniProt P21860 20-643).
T3 construct: also called HER3
As to the kind of experiment: surface plasmon resonance, antibody as ligand, recombinant ErbB3 as analyte. Background: SPR reads the build-up and loss of mass on a sensor chip optically.

The target in the next experiment is T4, ErbB3 (human, UniProt P21860 20-643, limits assumed).
T4 construct: also called ErbB3 domain; HER3
As to the kind of experiment: KinExA. On the technique in general: A kinetic exclusion assay measures how much of one partner remains free in solution.

A further experiment addresses ErbB3 on AdrR cells (human, UniProt P21860 20-1342). As to the kind of experiment: cell-based or functional assay.

B1: betacellulin (ligand, UniProt P35070 32-111, looked up)
chain: DGNSTRSPETNGLLCGDPEENCAATTTQSKRKGHFSRCPKQYKHYCIKGRCRFVVAEQTPSCVCDEGYIGARCERVDLFY
modifications: biotinylated in the FACS assay of Example 7 (site not stated)
notes: also called BTC; biotinylated BTC
With B1, the binding result with ErbB1 on AdrR cells is reported as “binds”.

B2: Ab #3 (antibody, V domains shown)
VH: EVQLLESGGGLVQPGGSLRLSCAASGFTFSAYNMRWVRQAPGKGLEWVSVIYPSGGATRYADSVKGRFTISRDNSKNTLYLQMNSLRAEDTAVYYCARGYYYYGMDVWGQGTLVTVSS
VL: QSVLTQPPSASGTPGQRVTISCSGSDSNIGRNYIYWYQQFPGTAPKLLIYRNNQRPSGVPDRISGSKSGTSASLAISGLRSEDEAEYHCGTWDDSLSGPVFGGGTKLTVL
With B2, the Kd in experiment [1] is ~1.3 nM; with recombinant ErbB3, ~8 nM.

B3: Ab #6 (antibody, V domains shown)
VH: EVQLLESGGGLVQPGGSLRLSCAASGFTFSHYVMAWVRQAPGKGLEWVSSISSSGGWTLYADSVKGRFTISRDNSKNTLYLQMNSLRAEDTAVYYCTRGLKMATIFDYWGQGTLVTVSS
VL: QSALTQPASVSGSPGQSITISCTGTSSDVGSYNVVSWYQQHPGKAPKLIIYEVSQRPSGVSNRFSGSKSGNTASLTISGLQTEDEADYYCCSYAGSSIFVIFGGGTKVTVL
notes: also called MM-121; anti-ErbB3 antibody Ab #6
B3: in the experiment with ErbB3, the Kd stood at 0.769 nM, the dissociation rate constant (koff) worked out at 0.00011 s⁻¹ and the on-rate (kon) was 143000 M⁻¹ s⁻¹. Moreover, in the experiment with ErbB3 on AdrR cells, the “BTC-induced ErbB3 phosphorylation in AdrR cells (IC50)” value was found to be 5.9 nM and the “HRG-induced ErbB3 phosphorylation in AdrR cells (IC50)” value amounted to 2.4 nM. Moreover, the dissociation constant Kd in experiment [1] is ~4 nM. Besides, in the experiment with recombinant ErbB3, the Kd was ~4 nM.
